Patent publication US20240076386A1 (Pfizer, published 2024)

T1: cynomolgus monkey E-selectin extracellular domain with 10 His purification tail (cynomolgus monkey, UniProt P16581 22-554 (human entry))
T1 construct: also called cynomolgus E-selectin; truncated cynomolgus monkey E-selectin
T1 chain: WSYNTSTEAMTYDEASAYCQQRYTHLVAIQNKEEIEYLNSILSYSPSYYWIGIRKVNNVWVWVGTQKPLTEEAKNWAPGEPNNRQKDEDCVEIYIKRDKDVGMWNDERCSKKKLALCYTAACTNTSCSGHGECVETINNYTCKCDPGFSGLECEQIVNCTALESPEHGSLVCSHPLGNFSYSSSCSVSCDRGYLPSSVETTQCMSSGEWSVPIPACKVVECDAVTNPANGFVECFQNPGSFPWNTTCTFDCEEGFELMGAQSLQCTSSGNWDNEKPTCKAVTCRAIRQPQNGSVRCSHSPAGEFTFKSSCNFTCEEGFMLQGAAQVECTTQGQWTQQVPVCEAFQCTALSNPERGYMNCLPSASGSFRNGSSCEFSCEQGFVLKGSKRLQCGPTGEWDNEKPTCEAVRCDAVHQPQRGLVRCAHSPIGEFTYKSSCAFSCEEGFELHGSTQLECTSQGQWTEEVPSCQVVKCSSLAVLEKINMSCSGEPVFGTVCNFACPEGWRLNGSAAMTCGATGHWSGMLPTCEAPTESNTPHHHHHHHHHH

T2: human E-selectin extracellular domain with 10 His purification tail (human, UniProt P16581 22-556)
T2 construct: also called soluable human E-selectin extracellular domain; rhE-Selectin
T2 sequence: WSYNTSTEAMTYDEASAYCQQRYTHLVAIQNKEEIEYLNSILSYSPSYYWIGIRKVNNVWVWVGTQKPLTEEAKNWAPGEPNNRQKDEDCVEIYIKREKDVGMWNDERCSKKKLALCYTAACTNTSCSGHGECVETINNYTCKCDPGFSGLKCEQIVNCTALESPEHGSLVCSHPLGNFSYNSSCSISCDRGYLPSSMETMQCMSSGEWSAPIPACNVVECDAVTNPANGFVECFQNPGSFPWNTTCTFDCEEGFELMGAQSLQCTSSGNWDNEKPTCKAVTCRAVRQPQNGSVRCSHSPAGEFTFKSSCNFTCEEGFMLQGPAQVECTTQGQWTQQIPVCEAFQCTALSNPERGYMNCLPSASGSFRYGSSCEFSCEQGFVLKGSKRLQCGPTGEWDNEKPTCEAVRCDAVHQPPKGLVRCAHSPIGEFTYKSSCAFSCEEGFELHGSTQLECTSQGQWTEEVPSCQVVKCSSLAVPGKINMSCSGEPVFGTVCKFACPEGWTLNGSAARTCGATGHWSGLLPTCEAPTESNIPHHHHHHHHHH


Legend:
[1] = molecular target: T1, cynomolgus monkey E-selectin …; test: SPR, antibody captured, E-selectin analyte
Method: (§1) All flow cells were blocked with 1M Ethanolamine-HCl (ETH) for 7 minutes at 10 μL/minute. Final immobilization level of the capture antibody was approximately 10,000 resonance units (RU). The running buffer for immobilization and kinetics was HBS-EP+(10 mM 4-(2-hydroxyethyl)-1-piperazineethanesulfonic acid (HEPES) pH 7.4, 150 mM sodium chloride, 3 mM ethylenediaminetetraacetic acid (EDTA), 0.05% (v/v) Tween-20).
(§2) To characterize binding of antibodies to human, cynomolgus monkey, and mouse E-selectin, an antibody was diluted to 0.5 μg/mL in HBS-EP+ and captured by the anti-human IgG immobilized on flow cells 2, 3 and 4 for 30 seconds to 1 minute at a flow rate of 10 μL/minute to achieve a capture level of 70 to 300 RU. Flow cell 1 was used as a reference surface. […] HBS-EP+ buffer cycles collected for each captured antibody were used for double-referencing (Myszka D G. J. Mol. Recognition 1999; 12(5):279-84). At the end of each cycle, the entire anti-IgG surface was regenerated by a 30 second pulse of 3 M MgCl₂ and a 30 second pulse of ionic buffer (1.83 M MgCl₂, 0.92 M Urea, 1.83 M Guanidine HCl, pH 7.4) (Andersson K. Analy. Chem. 1999; 71(13): 2475-81). Kinetic assays were conducted at 25° C. at a collection rate of 10 Hertz (Hz) on a BIAcore™ T200 instrument (GE Healthcare). Rate constants and affinities were determined by fitting the data to a 1:1 binding model in BIAcore™ T200 Evaluation software version 3.0 (GE Healthcare).
(§3) This was done by first binding the antibody to immobilized anti-human IgG. After antibody capture, dilutions of the E-selectin proteins were flowed over and the association rate constant (ka), disassociation rate constant (kd), t½, and KD values were determined for binding to human and cynomolgus (Table 26).

[2] = molecular target: T2, human E-selectin extracellular domain …; test: SPR, antibody captured, E-selectin analyte
Method: as §1, §2, §3

Row | Kd [1] [nM] | koff [1] [s⁻¹] | kon [1] [M⁻¹ s⁻¹] | t½ [1] [s] | Kd [2] [nM] | koff [2] [s⁻¹] | kon [2] [M⁻¹ s⁻¹] | t½ [2] [s] | Binder
1 | 78.3 | 0.0176 | 227000 | 39.4 | 70.3 | 0.0141 | 201000 | 49.3 | optimized anti-E-selectin antibody 1282 (antibody, human IgG1, kappa, V domains shown, effector-null human IgG1, kappa) VH: EVQLVESGGGLVQPGGSLRLSCAASGYAIRSAYMHWVRQAPGKGLEWVARIDPANGNTIYVDSVEGRFTISADNAKNSAYLQMNSLRAEDTAVYYCAMDLYSTSEYWGQGTLVTVSS VL: DIQMTQSPSSLSASVGDRVTITCKTSQNIERYLNWYQQKPGKAPKLLIYAASSLQSGVPSRFSGSGSGTDFTLTISSLQPEDFATYFCLQDNAWPLTFGQGTKVEIKR
2 | 76.5 | 0.018 | 236000 | 38.5 | 65.2 | 0.0145 | 222000 | 48 | optimized anti-E-selectin antibody 1284 (antibody, human IgG1, kappa, V domains shown, effector-null human IgG1, kappa) VH: EVQLVESGGGLVQPGGSLRLSCAASGYAIRSAYMHWVRQAPGKGLEWVARIDPANGNTIYVESVEGRFTISADNAKNSAYLQMNSLRAEDTAVYYCAMDLYSTSEYWGQGTLVTVSS VL: DIQMTQSPSSLSASVGDRVTITCKTSQNIERYLNWYQQKPGKAPKLLIYAASSLQSGVPSRFSGSGSGTDFTLTISSLQPEDFATYFCLQDNAWPLTFGQGTKVEIKR
3 | 81.5 | 0.0171 | 211000 | 40.5 | 61.8 | 0.0163 | 264000 | 42.7 | optimized anti-E-selectin antibody 1444 (antibody, human IgG1, kappa, V domains shown, effector-null human IgG1, kappa) VH: EVQLVESGGGLVQPGGSLRLSCAASGYAIRSAYMHWVRQAPGKGLEWVARIDPANGNTIYVDSVTGRFTISADNAKNSAYLQMNSLRAEDTAVYYCAMDLYSTSEYWGQGTLVTVSS VL: DIQMTQSPSSLSASVGDRVTITCKTSQNIERYLNWYQQKPGKAPKLLIYAASSLQSGVPSRFSGSGSGTDFTLTISSLQPEDFATYFCLQDNAWPLTFGQGTKVEIKR
4 | 67.8 | 0.015 | 222000 | 46.2 | 60.5 | 0.0126 | 210000 | 55 | optimized anti-E-selectin antibody 1448 (antibody, human IgG1, kappa, V domains shown, effector-null human IgG1, kappa) VH: EVQLVESGGGLVQPGGSLRLSCAASGYAIRSAYMHWVRQAPGKGLEWVARIDPANGNTIYVDSVKERFTISADNAKNSAYLQMNSLRAEDTAVYYCAMDLYSTSEYWGQGTLVTVSS VL: DIQMTQSPSSLSASVGDRVTITCKTSQNIERYLNWYQQKPGKAPKLLIYAASSLQSGVPSRFSGSGSGTDFTLTISSLQPEDFATYFCLQDNAWPLTFGQGTKVEIKR
